This is an account of results in paper PMC7835227 (Scientific Reports, 2021).

The Kd is the free concentration of one partner at which half of the binding sites on the other are occupied at equilibrium, for simple one-to-one binding. A high value points to weaker binding.

One test concerns the target T1, GYM329 (human).
T1 construct: light chain of GYM329 (humanized, engineered MST1032); Made a molecule only as the ligand of Fc receptors (FcγRs, FcRn); Captured by protein L in the assays; also called anti-latent myostatin sweeping antibody; source: Chinese hamster ovary cells, stably expressed, purified (protein A)
The test is described as follows: SPR; Biacore T200, 25 °C, pH 6.0, PB-P+; antibody captured by protein L immobilised on a CM5 chip; FcRn as analyte, two-fold dilutions 15-240 nmol/L (GYM329) or 250-4000 nmol/L (trastuzumab); steady state model. Particulars: both partners purified. (SPR reads the build-up and loss of mass on a sensor chip optically.)

Test [1] has as its target T2, reference wild type human IgG1 (with trastuzumab Fab) (human).
T2 construct: heavy variable domain of trastuzumab; wild type human IgG1 heavy constant region; light chain of trastuzumab; Ligand of FcRn here; The supplement says that recombinant antibodies other than GYM329 and GYM-cyFc were expressed transiently in FreeStyle293-F and purified with protein A
Described as above. Conditions: both partners purified.

T1 sequence (heavy, as listed by the source, chain 1 of 2): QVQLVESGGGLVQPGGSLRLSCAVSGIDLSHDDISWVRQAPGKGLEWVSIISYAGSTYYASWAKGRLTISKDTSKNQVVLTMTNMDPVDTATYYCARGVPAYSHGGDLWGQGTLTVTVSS
T1 sequence (light, as listed by the source, chain 2 of 2): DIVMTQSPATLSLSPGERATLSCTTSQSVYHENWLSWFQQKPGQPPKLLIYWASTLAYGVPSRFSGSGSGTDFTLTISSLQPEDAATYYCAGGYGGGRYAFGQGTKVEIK

B1: cynomolgus monkey FcRn (receptor)
chain 1: AESHLSLLYHLTAVSSPAPGTPAFWVSGWLGPQQYLSYDSLRGQAEPCGAWVWENQVSWYWEKETTDLRIKEKLFLEAFKALGGKGPYTLQGLLGCELSPDNTSVPTAKFALNGEEFMNFDLKQGTWGGDWPEALAISQRWQQQDKAANKELTFLLFSCPHRLREHLERGRGNLEWKEPPSMRLKARPGNPGFSVLTCSAFSFYPPELQLRFLRNGMAAGTGQGDFGPNSDGSFHASSSLTVKSGDEHHYCCIVQHAGLAQPLRVELETPAKSS
chain 2: IQRTPKIQVYSRHPPENGKPNFLNCYVSGFHPSDIEVDLLKNGEKMGKVEHSDLSFSKDWSFYLLYYTEFTPNEKDEYACRVNHVTLSGPRTVKWDRDM
modifications: limits not given; soluble ectodomain taken from the UniProt extracellular feature, with beta-2-microglobulin as obligate subunit by convention
As to B1, the Kd with GYM329 turned out to be 104 nM.

B2: cynomolgus monkey FcRn (receptor)
chain 1: B1 chain 1
chain 2: B1 chain 2
As for B2, the Kd in test [1] came to 1530 nM.
